The text below walks through data of PMC10816394, “Radiosynthesis and Bioevaluation of ^99mTc-Labeled Isocyanide Ubiquicidin 29-41 Derivatives as Potential Agents for Bacterial Infection Imaging” (International Journal of Molecular Sciences, 2024).

No end group written: not given here.

Data set [1] has as its system bacterial infection sites. Further details: method as in PMID 14960656, PMID 10774881, PMID 12900285, PMID 15093821, PMID 11337578. Particulars: literature values; cited from earlier work.
The conditions of data set [2]: in vivo; cited from earlier work.
For data set [3], the system named is S. aureus-infected mice. The experiment in a line: SPECT imaging in bacterial infection mice. It counts as in vivo. Conditions: S. aureus in left forelimb muscle, 30~37 MBq tail vein, imaging at 30, 120 and 240 min p.i., n = 2. The protocol: The bacterial-infected mouse model was generated as follows: 100 μL of bacterial suspension containing approximately 1 × 10^8 CFU/mL (for S. aureus) was injected into the left forelimb muscle of the same mice. […] One hundred microliters of [^99mTc]Tc-CN5UBI 29-41 (30~37 MBq) was injected intravenously into each bacterially infected mouse via the tail vein (n = 2). […] The SPECT/CT images were reconstructed with HiSPECT 3.2.0 software (Bioscan, Washington, DC, USA) and processed with VivoQuant 2.5 software (Invicro, Needham, MA, USA).

The format of data set [4] is physicochemical. Conditions: pH 7.4. The protocol:
The lipophilicities of the ^99mTc-labeled complexes were evaluated by the distribution coefficient. The method for determining the distribution coefficient was as follows: 0.1 mL of the radiolabeled complex (3.7 MBq) was mixed with 0.9 mL of phosphate buffer (0.025 mol/L, pH 7.4) and 1 mL of n-octanol in a 5 mL centrifuge tube. The mixture was shaken on a vortex mixer at room temperature for 3 min and centrifuged at 5000 r/min for 5 min. Aliquots of 0.1 mL of both n-octanol and PBS were collected, and the radioactivity was determined with a γ-counter. The distribution coefficient was calculated as follows: Log D = lg[(counts per minute in n-octanol/counts per minute in PBS)]. Each group of measurements was carried out five times in parallel. The final results are expressed as the log D ± SD.

Data set [5] has as its system turpentine-oil-inflamed mice. Briefly: Biodistribution in mice with turpentine-induced abscesses (sterile inflammation). Conditions: tail vein injection, 120 min p.i., mean ± SD, n = 5. The protocol:
The sterile inflammation mouse model was constructed as follows: turpentine oil (0.1 mL) was injected into the left thigh muscle of female Kunming mice (18–22 g). […] Each mouse was injected with 0.1 mL of [^99mTc]Tc-CN5UBI 29-41 (3.7 MBq/mL) via the tail vein. The mice were sacrificed under anesthesia with 1.5% isoflurane at 120 min postinjection. The organs of interest (the inflamed muscle in the left thigh, normal muscle in the right thigh, blood, heart, liver, lung, kidney, spleen, stomach, bone, small intestine and large intestine) were collected, weighed and measured by a γ-counter. The results are expressed as the percentage of the injected dose per gram of tissue ± standard deviation (%ID/g ± SD). After the mice were sacrificed, the tissues containing the thyroid around the trachea in the neck were collected and measured. The results are expressed as the percentage of the injected dose ± standard deviation (%ID ± SD).

Data set [6] concerns S. aureus-infected mice. Set-up: species or system female Kunming mice. Particulars: mouse, in vivo. The protocol:
Bacterial infection mouse models were constructed as follows: S. aureus (ATCC 25923) was cultured in a liquid medium at 37 °C for approximately 24 h, washed with PBS (pH 7.4) and diluted to obtain a suspension of 1 × 10^8 CFU/mL. […] The mice were sacrificed with isoflurane anesthesia at 120 min postinjection. […] To evaluate the metabolic properties of [^99mTc]Tc-CN5UBI 29-41, biodistribution studies were carried out in mice infected with S. aureus at 30, 120 and 240 min.

As for “[^99mTc]Tc-UBI 29-41: directly ^99mTc-labeled UBI 29-41, reported bacterial infection tracer; structure speculated (TGRAKRRMQYNRR; also: directly 99mTc-labeled, no chelator, structure speculative; UniProt P62861 103-115, looked up, fragment)”, in data set [1], the “target-to-nontarget ratio at bacterial infection sites” value is listed as 1.7–4.7. In data set [2], the “target-to-nontarget ratio at sterile inflammation sites” value is on record as 1.1–1.2.

In the case of “[^99mTc]Tc-CN5UBI 29-41: ^99mTc complex of ligand CN5UBI 29-41 with the [^99mTc]Tc(I)^+ core (TGRAKRRMQYNRR; also: CN5 chelator, position not given here, 99mTc(I) complex; UniProt P62861 103-115, looked up, fragment)”, the “SPECT image finding at infection site” value in data set [3] was “accumulated at the site of bacterial infection”. Further, the “Log D ± SD, [^99mTc][Tc(Ⅰ)]^+ Core” value in data set [4] is listed as −2.66 ± 0.02. In addition, in data set [5], the Abscess uptake is listed as 0.73 ± 0.05 %ID/g, the Abscess/Blood ratio turned out to be 0.59 ± 0.06, the “Abscess/Muscle ratio (target-to-nontarget ratio)” value was found to be 2.52 ± 0.22 and the Blood uptake came to 1.28 ± 0.12 %ID/g. Besides, in data set [5], the Bone uptake is given as 0.82 ± 0.19 %ID/g, the Gallbladder uptake is 0.15 ± 0.04 %ID, the Heart uptake was found to be 0.61 ± 0.03 %ID/g and the Kidney uptake is 13.05 ± 1.24 %ID/g. For the same substance, in data set [5], the “Large Intestines uptake” value is recorded as 0.62 ± 0.18 %ID/g. Besides, in data set [6], the “Abscess/Muscle ratio (target-to-nontarget ratio)” value came to 4.15 ± 0.49.
